{
  "source": "paper doi:10.1101/2023.08.08.552426",
  "key": {"[1]": {"biological_target": "smORF5 (A0901_04910) (Apilactobacillus kunkeei strain A0901)", "experiment": "NMR relaxation"}, "[2]": {"biological_target": "smORF7 (A0901_04830) (Apilactobacillus kunkeei strain A0901)", "experiment": "NMR relaxation"}},
  "data": [
    {"substance": "smORF5 (A0901_04910) (natural protein)", "values": [
      {"measurement": "stoichiometry N", "setting": "[1]", "result": 2}
    ]},
    {"substance": "smORF7 (A0901_04830) (natural protein)", "values": [
      {"measurement": "stoichiometry N", "setting": "[2]", "result": 2}
    ]}
  ]
}
